Results on 1 substance are retold here after publication PMC3597719.

This test addresses NS1 protein expressed in yeast cells (UniProt P14340).

Usually stoichiometry N stands for the number of molecules, sites or subunits per partner or assembly. In turn, “NS1 protein expressed in yeast cells (from UniProt P14340 776-1127) (natural protein)” came in with a stoichiometry N of 2.
